Where a chain is given by its changes, count along the chain named. Starred links: 1 amine or outer side, 2 acyl side, 3 side chain; linkers in the order of their positions; H or OH if unused. Non-standard residues stand in square brackets, D forms with d. Groups on a side chain read outwards from the residue. No end group written: not given here. *: point of attachment. C18 diacid = O=C(O)CCCCCCCCCCCCCCCCC(=O)*; γGlu = O=C(O)[C@H](CCC(=O)[*:2])N[*:1]; AEEA = NCCOCCOCC(=O)O; Aib = CC(C)(N)C(=O)O
T1: NPY2 receptor (human (printed as hNPY2R), UniProt P49146 1-381)
T1 sequence (looked up): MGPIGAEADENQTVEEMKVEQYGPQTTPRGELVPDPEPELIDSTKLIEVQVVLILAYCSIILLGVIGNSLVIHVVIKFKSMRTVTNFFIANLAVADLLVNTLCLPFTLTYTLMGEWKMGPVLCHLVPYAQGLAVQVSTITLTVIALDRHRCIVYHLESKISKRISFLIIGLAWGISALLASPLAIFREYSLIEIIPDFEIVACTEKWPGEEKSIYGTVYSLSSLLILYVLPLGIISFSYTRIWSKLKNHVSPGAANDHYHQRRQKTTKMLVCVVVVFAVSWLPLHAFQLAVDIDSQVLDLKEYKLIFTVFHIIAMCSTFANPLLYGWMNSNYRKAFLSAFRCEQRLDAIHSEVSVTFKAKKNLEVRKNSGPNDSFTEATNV

T2: GIP receptor (human (printed as hGIPR), UniProt P48546 22-466)
T2 sequence (looked up): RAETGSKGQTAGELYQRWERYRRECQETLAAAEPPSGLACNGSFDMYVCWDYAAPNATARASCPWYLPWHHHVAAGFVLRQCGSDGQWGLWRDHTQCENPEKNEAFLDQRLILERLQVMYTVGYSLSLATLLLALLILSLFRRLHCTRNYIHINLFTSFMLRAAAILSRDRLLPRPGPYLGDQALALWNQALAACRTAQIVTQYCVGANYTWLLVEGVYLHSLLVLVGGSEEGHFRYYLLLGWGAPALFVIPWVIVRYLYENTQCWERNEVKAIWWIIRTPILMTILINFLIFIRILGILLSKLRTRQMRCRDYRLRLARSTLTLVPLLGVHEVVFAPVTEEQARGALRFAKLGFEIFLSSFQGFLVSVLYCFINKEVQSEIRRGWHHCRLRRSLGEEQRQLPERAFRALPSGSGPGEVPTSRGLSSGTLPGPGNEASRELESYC

T3: human neuropeptide Y2 (NPY2) receptor (human, UniProt P49146 1-381)
T3 sequence (looked up): T1 sequence (looked up)

T4: human GIP receptor (human, UniProt P48546 22-466)
T4 sequence (looked up): T2 sequence (looked up)

B1: Compound 18 (peptide)
peptide: YXEGTFTSDYSIXLEKQAQXAFVEWLIKGGPSSGASLRHYXNRXTRQRY
modifications: Aib at 2, 13, 20, 41, 44; K28 side chain: C20DA-gGlu-gGlu-gGlu-gGlu-gGlu-gGlu-eLys; C-terminal NH2
B2: Compound 3 (peptide)
peptide: YXEGTFTSDYSIXLEKQAQXAFVQWLIKGGQRSYASLRHYYNWLTRQRY
modifications: Aib at 2, 13, 20; K28 side chain: C20DA-gGlu-gGlu-gGlu-gGlu-gGlu-gGlu-eLys; C-terminal NH2
B3: Compound 253 (peptide)
peptide: B1 peptide with X41Y, R43W, X44L
modifications: Aib at 2, 13, 20; K28 side chain carries C18DA-gGlu-gGlu-gGlu-gGlu-gGlu; C-terminal amide
B4: Compound 249 (peptide)
peptide: B2 peptide with Q31P, R32S, S33E, Y34G
modifications: Aib at 2, 13, 20; K28 side chain carries C18DA-E-E-E-E-E-E-eLys (SEQ ID NO: 643); C-terminal amide
B5: Compound 255 (peptide)
peptide: B1 peptide with A21E, S33E, X41Y, R43W, X44L
modifications: Aib at 2, 13, 20; K28 side chain carries C18DA-gGlu-gGlu-gGlu-gGlu-gGlu-gGlu-eLys; C-terminal amide
B6: Compound 250 (peptide)
peptide: B2 peptide with Q31P, R32S, S33E, Y34G
modifications: Aib at 2, 13, 20; K28 side chain carries C18DA-gGlu-gGlu-gGlu-gGlu-gGlu; C-terminal amide
B7: Compound 246 (peptide)
peptide: B2 peptide with Q31P, R32S, S33E, Y34G
modifications: Aib at 2, 13, 20; K28 side chain carries C18DA-gGlu-gGlu-gGlu-gGlu-gGlu-OEG-OEG; C-terminal amide
B8: Compound 244 (peptide)
peptide: B1 peptide with S33T, X41Y, R43W, X44L
modifications: Aib at 2, 13, 20; K28 side chain carries C20DA-gGlu-gGlu-gGlu-gGlu-gGlu-gGlu-eLys; C-terminal amide
B9: Compound 257 (peptide)
peptide: B2 peptide with Q31P, R32S, S33E, Y34G
modifications: Aib at 2, 13, 20; K28 side chain carries C18DA-E-E-E-E-E (SEQ ID NO: 636); C-terminal amide

Legend:
Assay in all cases: cell-based or functional assay
NPY2 receptor = target: T1, NPY2 receptor
GIP receptor = target: T2, GIP receptor
GLP-1 receptor = GLP-1 receptor (human (printed as hGLP1R), UniProt P43220 24-463)
[1] = target: T3, human neuropeptide Y2 (NPY2) receptor
human GIP receptor = target: T4, human GIP receptor
human GLP-1 receptor = human GLP-1 receptor (human, UniProt P43220 24-463)

Row | Binder | EC50 hNPY2R 0.5% hP (CreLuc) (NPY2 receptor) | EC50 hNPY2R 100% hP (CreLuc) (NPY2 receptor) | EC50 hGIPR 0.5% hP (CreLuc) (GIP receptor) | EC50 hGIPR 100% hP (CreLuc) (GIP receptor) | EC50 hGLP1R 0.5% hP (CreLuc) (GLP-1 receptor) | EC50 hGLP1R 100% hP (CreLuc) (GLP-1 receptor) | EC50, CreLuc assay, 0.5% hP [1] | EC50, CreLuc assay, 100% hP [1] | EC50, CreLuc assay, 0.5% hP (human GIP receptor) | EC50, CreLuc assay, 100% hP (human GIP receptor) | EC50, CreLuc assay, 0.5% hP (human GLP-1 receptor) | EC50, CreLuc assay, 100% hP (human GLP-1 receptor)
1 | Y[Aib]EGTFTSDYSI[Aib]LEKQAQ[Aib]AFVQWLIKGGPSEGASLRHYYNWLTRQRY-NH2 (not fully specified (residue 28); also: TFA salt) [Compound 245] | 24.5 nM | 66.9 nM | 0.37 nM | 1.74 nM | 0.09 nM | 3.78 nM |  |  |  |  |  | 
2 | Y[Aib]EGTFTSDYSI[Aib]LEKQAQ[Aib]AFVQWLIK([γGlu-γGlu-γGlu-γGlu-γGlu-γGlu-C18 diacid])GGPSEGASLRHYYNWLTRQRY-NH2 (also: TFA salt) [Compound 252] | 14.5 nM | 33.5 nM | 0.29 nM | 1.25 nM | 0.1 nM | 2.59 nM |  |  |  |  |  | 
3 | Y[Aib]EGTFTSDYSI[Aib]LEKQAQ[Aib]AFVEWLIK([AEEA-AEEA-γGlu-γGlu-γGlu-γGlu-C18 diacid])GGPSEPASLRHYYNWLTRQRY-NH2 (also: TFA salt) [Compound 256] | 10.9 nM | 27 nM | 0.23 nM | 1.56 nM | 0.18 nM | 4.59 nM |  |  |  |  |  | 
4 | Y[Aib]EGTFTSDYSI[Aib]LEKQAQ[Aib]AFVEWLIK([AEEA-AEEA-γGlu-γGlu-γGlu-C18 diacid])GGPEEGASLRHYYNWLTRQRY-NH2 (also: TFA salt) [Compound 248] | 18.7 nM | 48.4 nM | 0.12 nM | 0.79 nM | 0.25 nM | 8 nM |  |  |  |  |  | 
5 | Y[Aib]EGTFTSDYSI[Aib]LEKQAQ[Aib]AFVEWLIK([AEEA-AEEA-γGlu-γGlu-γGlu-γGlu-C18 diacid])GGPSSGASLRHYYNWLTRQRY-NH2 (also: TFA salt) [Compound 254] | 17.8 nM | 30.9 nM | 0.22 nM | 0.63 nM | 0.07 nM | 1.69 nM |  |  |  |  |  | 
6 | Y[Aib]EGTFTSDYSI[Aib]LEKQAQ[Aib]AFIEWLIKGGPSEGASLRHYYNWLTRQRY-NH2 (not fully specified (residue 28); also: TFA salt) [Compound 258] | 22.3 nM | 72 nM | 0.16 nM | 1.23 nM | 0.17 nM | 2.52 nM |  |  |  |  |  | 
7 | Y[Aib]EGTFTSDYSI[Aib]LEKQAE[Aib]AFVEWLIK([AEEA-AEEA-γGlu-γGlu-γGlu-γGlu-C18 diacid])GGPSEGASLRHYYNWLTRQRY-NH2 (also: TFA salt) [Compound 251] | 20.6 nM | 48.7 nM | 0.16 nM | 0.98 nM | 0.49 nM | 7.16 nM |  |  |  |  |  | 
8 | B1 |  |  |  |  |  |  | 85.7 nM | 224 nM | 0.36 nM | 1.98 nM | 0.12 nM | 1.94 nM
9 | B2 |  |  |  |  |  |  | 4.45 nM | 23 nM | 0.53 nM | 6.56 nM | 0.45 nM | 14.4 nM
10 | B3 | 13.4 nM | 39.3 nM | 0.24 nM | 0.64 nM | 0.08 nM | 0.74 nM |  |  |  |  |  | 
11 | B4 | 17.8 nM | 50 nM | 0.19 nM | 1.25 nM | 0.13 nM | 1.78 nM |  |  |  |  |  | 
12 | B5 | 17.3 nM | 40.9 nM | 0.46 nM | 1.23 nM | 0.34 nM | 7.31 nM |  |  |  |  |  | 
13 | B6 | 12.2 nM | 37.4 nM | 0.2 nM | 1.25 nM | 0.08 nM | 2.03 nM |  |  |  |  |  | 
14 | B7 | 12.8 nM | 28.2 nM | 0.16 nM | 0.95 nM | 0.11 nM | 2.7 nM |  |  |  |  |  | 
15 | B8 | 13.5 nM | 58.3 nM | 0.32 nM | 2.32 nM | 0.19 nM | 5.98 nM |  |  |  |  |  | 
16 | B9 | 16.9 nM | 96.3 nM | 0.14 nM | 1.48 nM | 0.08 nM | 2.48 nM |  |  |  |  |  | 
17 | Y[Aib]EGTFTSDYSI[Aib]LEKQAQ[Aib]AFIEWLIK([γGlu-γGlu-γGlu-γGlu-C18 diacid])GGPSEGASLRHYYNWLTRQRY-NH2 (also: TFA salt) [Compound 247] | 11.9 nM | 64.7 nM | 0.26 nM | 1.57 nM | 0.11 nM | 2.2 nM |  |  |  |  |  | 

Source: patent publication US20240247080A1, “GLP1/GIP/NPY2 RECEPTOR TRIPLE AGONISTS” (Boehringer Ingelheim International GmbH, priority 2022, published 2024)
